Source: paper PMC9650030, “The RNA repair proteins RtcAB regulate transcription activator RtcR via its CRISPR-associated Rossmann fold domain” (iScience, 2022)

T1: MBP-RtcR (wild-type, full-length RtcR N-terminally tagged with maltose binding protein) (Escherichia coli, UniProt P38035 1-532, labelled with Monolith RED-NHS 2nd Generation dye (amine reactive) in the MST experiments only)
T1 construct: also called RtcRWT; MBP-RtcRWT; not shown: MBP, N-terminal, kept
T1 sequence (looked up): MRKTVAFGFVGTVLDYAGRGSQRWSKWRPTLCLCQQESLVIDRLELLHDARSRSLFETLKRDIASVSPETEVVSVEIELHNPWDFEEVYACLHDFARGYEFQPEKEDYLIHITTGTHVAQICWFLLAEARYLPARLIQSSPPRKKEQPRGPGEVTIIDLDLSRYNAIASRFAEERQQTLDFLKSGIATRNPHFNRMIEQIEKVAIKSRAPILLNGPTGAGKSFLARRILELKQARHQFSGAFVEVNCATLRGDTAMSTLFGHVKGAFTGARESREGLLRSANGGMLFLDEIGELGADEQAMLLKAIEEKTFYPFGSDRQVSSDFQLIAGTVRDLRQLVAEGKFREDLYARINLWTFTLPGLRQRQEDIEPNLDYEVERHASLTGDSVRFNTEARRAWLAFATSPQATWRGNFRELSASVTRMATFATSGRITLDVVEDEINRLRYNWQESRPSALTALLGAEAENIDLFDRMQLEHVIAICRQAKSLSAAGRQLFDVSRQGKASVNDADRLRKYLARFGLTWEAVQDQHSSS


Experiments:
[1] = target: MBP-RtcR (wild-type, full-length RtcR N-terminally tagged with maltose binding protein) (Escherichia coli) (UniProt P38035); assay: MST; RED-NHS-labelled MBP-RtcRWT or RtcR_(ΔCARF) (diluted to 50 nM, mixed with an equal volume) against a serial dilution of RtcA or RtcB; 24°C; modified PBS (250 mM NaCl) with 0.05% Tween-20; fitted with the Hill equation
[2] = target: T1, MBP-RtcR (wild-type, full-length RtcR …); assay: as above; conditions: both partners purified

| Kd [1] [µM] | Kd [2] [µM] | Molecule |
| --- | --- | --- |
| 14.5 | – | His-RtcB (N-terminal his-tagged RNA ligase RtcB) (from UniProt P46850 1-408) (enzyme) |
| – | ~5 | His-RtcA (N-terminal his-tagged RNA 3'-terminal phosphate cyclase RtcA) (enzyme, Escherichia coli, UniProt P46849 1-338, looked up, RtcA, RNA 3'-terminal phosphate cyclase, Escherichia coli; not shown: His tag, N-terminal, kept) MKRMIALDGAQGEGGGQILRSALSLSMITGQPFTITSIRAGRAKPGLLRQHLTAVKAATEICGATVEGAELGSQRLLFRPGTVRGGDYRFAIGSAGSCTLVLQTVLPALWFADGPSRVEVSGGTDNPSAPPADFIRRVLEPLLAKIGIHQQTTLLRHGFYPAGGGVVATEVSPVASFNTLQLGERGNIVQMRGEVLLAGVPRHVAEREIATLAGSFSLHEQNIHNLPRDQGPGNTVSLEVESENITERFFVVGEKRVSAEVVAAQLVKEVKRYLASTAAVGEYLADQLVLPMALAGAGEFTVAHPSCHLLTNIAVVERFLPVRFSLIETDGVTRVSIE |
